{"source": "patent US20230287120A1", "about": "(ALLOGENE THERAPEUTICS, published 2023)", "key": {"[1]": {"biological_target": "T1, human DLL3 on cells (endogenous on SHP-77, DMS 273, DMS 454; full length human DLL3 by lentivirus on HEK-293T) (human, UniProt Q9NYJ7 27-618)", "T1 construct": "whole, on cells", "T1 sequence (looked up)": "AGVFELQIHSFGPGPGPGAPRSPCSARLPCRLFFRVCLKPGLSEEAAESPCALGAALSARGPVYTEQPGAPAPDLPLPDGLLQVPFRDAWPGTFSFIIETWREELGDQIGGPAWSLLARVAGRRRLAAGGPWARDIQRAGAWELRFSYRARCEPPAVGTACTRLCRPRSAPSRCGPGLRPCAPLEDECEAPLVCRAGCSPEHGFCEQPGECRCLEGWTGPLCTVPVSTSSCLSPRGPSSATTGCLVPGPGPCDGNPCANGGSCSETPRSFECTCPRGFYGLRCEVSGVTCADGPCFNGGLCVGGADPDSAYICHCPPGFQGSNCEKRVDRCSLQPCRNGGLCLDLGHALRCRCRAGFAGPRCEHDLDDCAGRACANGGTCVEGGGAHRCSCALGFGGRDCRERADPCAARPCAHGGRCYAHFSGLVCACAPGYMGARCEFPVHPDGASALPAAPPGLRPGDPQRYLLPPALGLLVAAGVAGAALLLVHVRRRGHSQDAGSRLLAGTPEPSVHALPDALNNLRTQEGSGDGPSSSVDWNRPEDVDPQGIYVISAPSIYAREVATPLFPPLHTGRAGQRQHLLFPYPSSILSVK", "experiment": "flow cytometry on DMS 273, DMS 454 and SHP-77 cells, 2 ug/ml antibody, PE anti-mouse IgG"}, "[2]": {"biological_target": "T2, full length human DLL3 with N-terminal HA tag, expressed on CHO cells (human, UniProt Q9NYJ7 27-618)", "T2 construct": "also called Human DLL3 complete ECD", "T2 sequence": "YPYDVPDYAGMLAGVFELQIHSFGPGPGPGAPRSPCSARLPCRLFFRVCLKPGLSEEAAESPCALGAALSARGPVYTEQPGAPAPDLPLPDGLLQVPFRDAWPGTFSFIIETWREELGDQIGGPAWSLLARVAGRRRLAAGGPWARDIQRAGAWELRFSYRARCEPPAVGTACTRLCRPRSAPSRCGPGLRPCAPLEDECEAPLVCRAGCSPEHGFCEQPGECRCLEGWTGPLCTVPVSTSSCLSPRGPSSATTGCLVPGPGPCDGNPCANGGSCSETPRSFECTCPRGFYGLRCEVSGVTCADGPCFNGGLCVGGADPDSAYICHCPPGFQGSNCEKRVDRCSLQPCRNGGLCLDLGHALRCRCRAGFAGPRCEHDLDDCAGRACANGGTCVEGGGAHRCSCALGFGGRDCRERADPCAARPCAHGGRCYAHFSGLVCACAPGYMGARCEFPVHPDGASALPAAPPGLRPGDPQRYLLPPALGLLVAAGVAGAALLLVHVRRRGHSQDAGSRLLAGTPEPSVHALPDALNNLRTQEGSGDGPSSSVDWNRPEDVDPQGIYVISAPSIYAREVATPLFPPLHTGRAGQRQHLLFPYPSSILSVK", "experiment": "flow cytometry on CHO cells with full length and truncated human DLL3; column Binds to DLL3 Domain"}, "[3]": {"biological_target": "T3, human DLL3 extracellular domain (ECD) with C-terminal 8xHis tag and Avi tag (human, UniProt Q9NYJ7 27-492)", "T3 construct": "extracellular domain; Expressed in Expi293, purified by IMAC and SEC; also called huDLL3; not shown: Avi tag", "T3 sequence": "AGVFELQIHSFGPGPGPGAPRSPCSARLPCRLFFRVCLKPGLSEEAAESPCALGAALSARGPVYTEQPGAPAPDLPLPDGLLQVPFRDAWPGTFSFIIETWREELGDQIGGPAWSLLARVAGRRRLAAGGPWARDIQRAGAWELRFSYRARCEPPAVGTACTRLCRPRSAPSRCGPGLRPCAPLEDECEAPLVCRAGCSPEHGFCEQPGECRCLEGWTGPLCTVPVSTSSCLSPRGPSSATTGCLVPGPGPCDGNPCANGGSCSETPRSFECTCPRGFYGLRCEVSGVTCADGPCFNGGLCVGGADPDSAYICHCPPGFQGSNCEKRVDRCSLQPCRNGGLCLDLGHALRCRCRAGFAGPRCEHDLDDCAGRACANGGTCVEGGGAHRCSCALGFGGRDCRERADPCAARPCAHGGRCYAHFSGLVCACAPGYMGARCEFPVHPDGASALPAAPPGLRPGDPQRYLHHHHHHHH", "experiment": "SPR (Biacore), 37 C; IgG captured on chip, human DLL3 ECD in solution; 1:1 Langmuir fit"}, "DSL-EGF6": {"biological_target": "T4, DSL-EGF6", "T4 construct": "also called Human DLL3 DSL-EGF6, N-terminal HA tag, on CHO cells", "T4 single chain": "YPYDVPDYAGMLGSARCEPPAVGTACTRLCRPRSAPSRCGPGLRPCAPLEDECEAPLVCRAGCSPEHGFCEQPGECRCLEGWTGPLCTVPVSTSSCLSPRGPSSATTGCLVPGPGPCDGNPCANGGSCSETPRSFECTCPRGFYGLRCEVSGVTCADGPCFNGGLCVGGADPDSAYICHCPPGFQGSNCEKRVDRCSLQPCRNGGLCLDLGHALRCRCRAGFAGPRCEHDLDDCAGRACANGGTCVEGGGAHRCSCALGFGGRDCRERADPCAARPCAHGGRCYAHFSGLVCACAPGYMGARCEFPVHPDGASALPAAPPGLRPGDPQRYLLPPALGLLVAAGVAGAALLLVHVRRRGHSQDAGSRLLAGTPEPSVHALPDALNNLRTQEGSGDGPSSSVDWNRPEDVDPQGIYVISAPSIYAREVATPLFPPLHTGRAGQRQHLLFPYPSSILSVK", "experiment": "flow cytometry on CHO cells with the HA tagged DLL3 construct, PE anti-mouse IgG"}, "EGF1-EGF6": {"biological_target": "T5, EGF1-EGF6", "T5 construct": "also called Human DLL3 EGF1-EGF6, N-terminal HA tag, on CHO cells", "T5 single chain": "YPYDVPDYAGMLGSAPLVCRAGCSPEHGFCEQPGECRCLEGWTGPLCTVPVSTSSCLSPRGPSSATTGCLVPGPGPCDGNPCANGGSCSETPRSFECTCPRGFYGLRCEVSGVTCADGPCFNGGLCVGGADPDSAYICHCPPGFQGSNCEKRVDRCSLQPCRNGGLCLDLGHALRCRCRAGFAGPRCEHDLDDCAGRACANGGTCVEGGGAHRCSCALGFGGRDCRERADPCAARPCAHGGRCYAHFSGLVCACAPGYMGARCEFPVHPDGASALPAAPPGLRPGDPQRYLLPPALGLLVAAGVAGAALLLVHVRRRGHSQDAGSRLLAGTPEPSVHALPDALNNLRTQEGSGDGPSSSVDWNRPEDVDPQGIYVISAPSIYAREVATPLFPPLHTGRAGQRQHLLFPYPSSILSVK", "experiment": "flow cytometry on CHO cells with the HA tagged DLL3 construct, PE anti-mouse IgG"}, "EGF2-EGF6": {"biological_target": "T6, EGF2-EGF6", "T6 construct": "also called Human DLL3 EGF2-EGF6, N-terminal HA tag, on CHO cells", "T6 single chain": "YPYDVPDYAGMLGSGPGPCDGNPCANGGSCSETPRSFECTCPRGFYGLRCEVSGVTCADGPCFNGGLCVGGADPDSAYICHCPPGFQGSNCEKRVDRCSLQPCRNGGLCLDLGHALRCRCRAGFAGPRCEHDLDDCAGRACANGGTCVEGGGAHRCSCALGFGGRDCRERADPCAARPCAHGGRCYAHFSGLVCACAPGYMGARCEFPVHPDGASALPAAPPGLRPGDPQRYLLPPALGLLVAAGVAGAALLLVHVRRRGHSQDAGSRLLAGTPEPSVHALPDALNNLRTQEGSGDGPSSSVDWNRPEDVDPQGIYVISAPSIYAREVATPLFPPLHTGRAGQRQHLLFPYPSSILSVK", "experiment": "flow cytometry on CHO cells with the HA tagged DLL3 construct, PE anti-mouse IgG"}, "EGF3-EGF6": {"biological_target": "T7, EGF3-EGF6", "T7 construct": "also called Human DLL3 EGF3-EGF6, N-terminal HA tag, on CHO cells", "T7 single chain": "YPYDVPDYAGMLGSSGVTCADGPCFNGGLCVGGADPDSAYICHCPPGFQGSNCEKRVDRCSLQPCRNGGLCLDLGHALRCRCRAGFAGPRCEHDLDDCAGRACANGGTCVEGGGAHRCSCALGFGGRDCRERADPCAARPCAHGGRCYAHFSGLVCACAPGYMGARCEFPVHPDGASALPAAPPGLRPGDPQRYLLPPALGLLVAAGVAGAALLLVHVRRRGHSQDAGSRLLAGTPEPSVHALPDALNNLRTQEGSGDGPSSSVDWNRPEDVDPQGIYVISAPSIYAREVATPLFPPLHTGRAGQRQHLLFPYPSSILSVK", "experiment": "flow cytometry on CHO cells with the HA tagged DLL3 construct, PE anti-mouse IgG"}, "EGF4-EGF6": {"biological_target": "T8, EGF4-EGF6", "T8 construct": "also called Human DLL3 EGF4-EGF6, N-terminal HA tag, on CHO cells", "T8 single chain": "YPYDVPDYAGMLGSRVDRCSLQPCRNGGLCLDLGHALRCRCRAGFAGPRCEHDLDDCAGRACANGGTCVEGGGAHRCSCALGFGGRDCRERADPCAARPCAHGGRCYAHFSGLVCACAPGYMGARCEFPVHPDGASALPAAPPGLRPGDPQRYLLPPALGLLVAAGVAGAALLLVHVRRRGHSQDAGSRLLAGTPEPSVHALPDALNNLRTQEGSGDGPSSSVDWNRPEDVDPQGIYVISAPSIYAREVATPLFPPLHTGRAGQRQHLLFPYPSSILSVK", "experiment": "flow cytometry on CHO cells with the HA tagged DLL3 construct, PE anti-mouse IgG"}, "EGF6": {"biological_target": "T9, EGF6", "T9 construct": "also called Human DLL3 EGF6, N-terminal HA tag, on CHO cells", "T9 single chain": "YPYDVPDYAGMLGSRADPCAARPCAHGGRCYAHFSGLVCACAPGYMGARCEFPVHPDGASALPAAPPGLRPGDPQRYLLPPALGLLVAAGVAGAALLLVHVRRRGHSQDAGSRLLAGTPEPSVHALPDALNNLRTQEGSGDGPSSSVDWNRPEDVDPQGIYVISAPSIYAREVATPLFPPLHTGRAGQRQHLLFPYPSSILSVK", "experiment": "flow cytometry on CHO cells with the HA tagged DLL3 construct, PE anti-mouse IgG"}, "EGF5-EGF6": {"biological_target": "T10, EGF5-EGF6", "T10 construct": "also called Human DLL3 EGF5-EGF6, N-terminal HA tag, on CHO cells", "T10 single chain": "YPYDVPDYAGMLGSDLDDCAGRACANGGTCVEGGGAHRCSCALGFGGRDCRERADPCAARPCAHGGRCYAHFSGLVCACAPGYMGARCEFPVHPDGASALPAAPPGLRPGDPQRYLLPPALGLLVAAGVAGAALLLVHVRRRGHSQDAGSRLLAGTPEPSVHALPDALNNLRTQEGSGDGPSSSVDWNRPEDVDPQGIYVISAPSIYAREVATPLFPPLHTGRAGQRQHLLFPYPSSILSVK", "experiment": "flow cytometry on CHO cells with the HA tagged DLL3 construct, PE anti-mouse IgG"}}, "data": [{"binder": "anti-DLL3 antibody 10G1-K (antibody, V domains shown) VH: EVQLLESGGGLVQPGGSLRLSCAASGFTFSSYAMNWVRQAPGKGLEWVSTISGSGGSTYYADSVKGRFTISRDNSKNTLYLQMNSLRAEDTAVFYCAIDPEYYDILTGGDYWGQGTLVTVSS VL: DIQMTQSPSAMSASVGDRVTITCRASQGISNYLAWFQQKPGKVPKRLIYAASSLQSGVPSRFSGSGSGTEFTLTISSLQPEDFATYFCLQHDSFPLTFGGGTKVEIK", "values": [{"measurement": "binding result", "setting": "[1]", "value": "binds"}, {"measurement": "binding result", "setting": "[2]", "value": "binds"}]}, {"binder": "3E4 (antibody, V domains shown, also called anti-DLL3 antibody 3E4 (purified, mouse IgG2A backbone)) VH: QVQLQQWGAGLLKPSETLSLTCAVYGGSFSGYYWSWIRQPPGKGLEWIGEIIHSGSSNYNPSLKSRVSISVDTSKNQFSLKLSSVTAADTAVYYCSRGEYGSGSRFDYWGQGTLVTVSS VL: AIQMTQSPSSLSASVGDRVAITCRASQGIRDDLGWYQQKPGKAPKLLIYAASSLQSGVPSRFSGSRSDTDFTLTISSLQPEDFATYYCLQDYDYPLTFGGGTKVEIK", "values": [{"measurement": "binding result", "setting": "[1]", "value": "binds"}]}, {"binder": "anti-DLL3 antibody 4E6 (antibody, V domains shown) VH: QVQLQESGPGLVKPSETLSLTCTVSSDSISSYYWSWIRQPPGKGLEWISYIYYSGISNYNPSLKSRVSISVDTSKNQFSLRLSSVTAADTAVYYCARISVAGFFFDNWGQGTLVTVSS VL: EIMLTQSPDTLSLSPGERATLSCRASQSVSSSYLAWYQQKPGQAPRLLIYGASSRAAGVPDRFSGSGSGTDFTLTISRLAPEDFVVYYCQQYGISPLTFGGGTKVEIK", "values": [{"measurement": "binding result", "setting": "[1]", "value": "binds"}, {"measurement": "binding result", "setting": "[2]", "value": "binds"}]}, {"binder": "anti-DLL3 antibody 5E12 (IgG) (antibody, V domains shown, Full-length monoclonal antibody (IgG)) VH: EVQLVESGGGLVQPGGSLRLSCAASGFTFSSYDMHWVRQATGKGLEWVSAIGPAGDTYYPGSVKGRFTISRENAKNSLYLQMNSLRAGDTAVYYCARADPPYYYYGMDVWGQGTTVTVSS VL: not shown", "values": [{"measurement": "Kd", "setting": "[3]", "value": 7.76, "unit": "nM"}, {"measurement": "binding result", "setting": "DSL-EGF6", "value": "binds"}, {"measurement": "binding result", "setting": "EGF1-EGF6", "value": "no binding"}, {"measurement": "binding result", "setting": "EGF2-EGF6", "value": "no binding"}, {"measurement": "binding result", "setting": "EGF3-EGF6", "value": "no binding"}, {"measurement": "binding result", "setting": "EGF4-EGF6", "value": "no binding"}, {"measurement": "binding result", "setting": "EGF6", "value": "no binding"}, {"measurement": "binding result", "setting": "EGF5-EGF6", "value": "no binding"}]}]}
